# Measurements as given in the DeepSol protein solubility set.
# Experiment: soluble on expression in E. coli; label from the status in PepcDB or PDB records
row,Sequence,soluble on expression in E. coli
1,MEPDLKNVKNAGTGESNKDEIKNTNASRRSGRKVKTIIEEDPNINKKMELPPTLMPKFPSQKIIKQQKSPDKNEPPPARPVEQTEENEENNADEKEKHEIFWQEGVIEECQGREDEGEVPKEQEEHAHVSPDPTSLNDKKSKFEKPNLEPGKPEKPEKLDKPLAKPLPPPSAAPPPVAPLSAPVPSTGAPPSAVPPADKKMSKQSTRDKKSGRSTDRNIHKKKDVAALDENKKSPEDKKKDAGTKKGSTEDASTDNLNNGKVQSRRKSKRQKKSIFQQPVQRTPGSHPSAYLQPTRARTERSLKLPPAEPKSVDERPRKPSTQILQPQQPNRGGQVQKQPSKVVLQPGAPGATPVASTPNQREQAQQQQQQQQKGPMGLFKKIYRKMNFRAASDCTVEPTKEMLAKSYVRPEHNSNDPIDFCPDLPKKLFDEEAWKLRMTNKGANRNEVFLNNRPFWLTRDGTEQIPKVRIQLHRPLKQMHSGNPASIQLKLQRTDPFLDPKEDTLERLKIVDKAIGVDPLDLTKDRELKRVCANTFHGTLMFEVDKRQYDTQQKKAEAEALKLDPKRKNDGKEKDQKSSFEDPKKVAFNVSDKCTLHVYFRKHRPLTNQGKSERFTEKKYTMGERKIMKKGEKPAVPQLVPPTSSSTTSASSSSCRETKKL,not soluble
2,MEPPLWVFGYGSLIWDPGFPVARSVIARLDGWHRSFCMHSIHYRGTATDPGLVLALDAAPGGACLGVGFQVTPGAEAETLAALRKRELISNAYLERWLPVTLATGETVEAVSYVIDPDHGQYCGGLDLEAQAQIIARAAGERGPNRDYLLHTVAHLQSLGISDPDLCWLATRVRALGNDPVSAAALEHHHHHH,not soluble
3,MEQAPPDPEKLLQPGPLEPLGGPGAVLEAAVGEENEGTREDGSGVDTMTGNNFWLKKIEISVSEAEKRTGRNAVNMQETYTAYLIETRSVEHADGQSVLTDSLWRRYSEFELLRNYLLVYYPHVVVPPLPEKRAEFVWHKLSADNMDPDFVERRRVGLENFLLRVASHPVLCRDKIFYSFLTQEGNWKETVNETGFQLKADSRLKALNATFRVKNPDKRFTELRHYSDELQSVISHLLRVRARVADRLYGVYKVHGNYGRVFSEWSAIEKEMGDGLQSAGHHMDVYASSIDDILEDEEHYADQLKEYLFYAEALRAVCRKHELMQYDLETAAQDLAAKKQQCEELATGTVRTFSLKGMTTKLFGQETPEQREARIKVLEEQINEGEQQLKSKNLEGREFVKNAWADIERFKEQKNRDLKEALISYAVMQISMCKKGIQVWTNAKECFSKM,soluble
4,MEQEQRGMAALLSKFRIDYSDVYVIADIGKKPRQETMNTWQSVIDPFIAQDGSCPIGMTTKSELSAQRDKTYRQLRAGELLNEHSINADLIVMTLPVPRKGMVSSSLYMSWLEVMTRNLPPVLLVRGNQQSVNTSSSSTASSPHHLIIPALAINPHLKVFPSHISLKCFFFFRFLLKAYAAAVHPPSRFLCYMKKVTDSIFVSLMNNSRLYCLL,not soluble
5,MEQHVIEFLTTTLDDLKAQDILAIDVRGKSSITDTMIIATGTSVRHVASTAERLITEAKKAGVQVLGEEGRAVADWVVVDFGQAIVHLLQADARELYQLEKLWRLEHHHHHH,not soluble
6,MEQLTKNQRKKRDEIEAGKSYCSRRFGGATCDDKSAQIYARFDKNDWRIQPAEFYRFHDAEVNTFGYF,soluble
7,MEQLYPAPIKTVEEGSPAARAGVRPGDVLLRVNGQPVTDVLAYRHQLERGVVTLEVARPHEAPRVMTGVLEHHHHHH,not soluble
8,MEQSQRTQLSYEGAKSVIRFMSIEKRIQIHCRIPYYRKTNALFPYAHRQMTLSSDGISIGSNHYTFDIRRSNFGRRFRDDFGGESDEEPEAAPLEPALAELNLRDRARREREILREEHYQREDDERLRAQQNQVHIRYGETQYEVRRNFGQRRNPEEAFIKLFDAYISTGTTIEKLLFTGFPKFLKKRDPSKLQFKVRELKLSSLRDRTLEKIVPFIGASKLKKMNLDVGPDTISYLDLPMIKNCEVLNLNISMWNERNRQRNENNNFSKLSNLRNMKLNLILERFTIDDLQRLALNWIFTRRPIGTYFKTGVNQQYDHILDIFDRLIEENRASRCRITKLGTVYFANGVKLSIDGKSELVVYGGPKWKTRAGIDGQWTIHMEVMAVGDTTPSA,not soluble
9,MEQVFAPWRIEWVERDDTTDDDVDCVFCAFPGREHARQHLVVARTDHAAVMLNNYPYNPGHCMVIPDVHTGDYGDLDADTLLDHARLKQATLDALDAALGPDAFNTGLNLGGGAAGGSIGDHLHTHVVPRWNGDTNFMPVISDTKVIVEALDDTYDRLHDAFLARPDATEAPTGAVFVDFNLEHHHHHH,not soluble
10,MERECEESVVVAVVTEPRFTQRYRDYLEEQKLLDRLHRVAKLRDGAVALPVLAESLSEQHLQELRDRVAPGSTCVLTRLPDPLPSKKARVRSPAQILCLEVRRWVEDRGVTWSAELEADLPRSWQRHGDLMLLSEDCFQATLWKGLEPELWETVASALGVQRLAKRGRVLPDGTRTPSVTLLLGDHGWVEHMDNGIRYKFDVTQCMFSFGNITEKLRVASLSCAGEVLVDLYAGIGYFTLPFLVHAGAAFVHACEWNPHAVVALRNNLEINGVADRCQIHFGDNRKLKLSDIADRVNLGLIPSSKEGWPVACQVLRKDVGGILHIHQNVESFSGKTPQPPGSNNVEKEHWPRPQKITTDTQGNGTTENFRGEISSANKPEWWRWAESAETQIASLLHQVHGKPWRTRILHVHPVKSYAPHVDHIVLDLECRPLTSSWPEGVDLLTQ,soluble
11,MERETPKTPTPTPYTNIYAALNNKKTNDEVASKVTEELNKLKIAEEKDNKIVSREKPEMMSLNTLVEMCSAGEKPTKGKSEKDIRKKKAPVLVDDNQSYVMIGPPSEPVEPPATLSTETSKTNAIEESTVKRSEALSAYIGVATLNDAENHLTRRGEFALYHLFNPNGRLDTITEKLPLMIVYRTTTKKNRHYSIRTTCDQQFFVDCGYPNVRKHYSLNHLVKFYKVRILLPDTIQKQQLTDILQILKQFQTSATCEINPYDTSADSFSWWLE,soluble
12,MERIAMNPLMQQAIQFANDHETAWDRSVRGNFGVHLDDPPPWNRLLGPVHDRGPVSGVVVVDGQTLASWGEPERADLTFSVAKLYLSILAGVAHDRGLLPDVDEPVGRRVPGIGFDAGRNARITWRHLLQQTSEWEGERFGVPDQADRYRAVAFGIPPDGRKGDARPLQEPGTYWEYNDVRINQLSYALLHLFRRPLPEVFREAVTRPLGASEDWQWVGYDNAWVDIDGVRMPSVPGGTHWGGGMSISARDQALIGRMLLDEGRAADGRQVLSPAWIQAMRTPCDIAPYYGYLIWLNHERKVFPSVPASSFFGIGAGSSFTWVEPERRMVVIVRWLDAAYADALFGRILAAVDAHRAGLEHHHHHH,not soluble
13,MERQVFIRLRHRLEADPDELILLGHIAQVAGDRGYKEKLERLPIYQVSKADQSMVVLDVMKVIEAVHKSFPDLDVQTVGGSETIVEIQYPKRDLSP,soluble
14,MERRKDTEVALAQRDTILQTILDASPDSIGIFNENMVYQACNKPFVNALGISEVSDLIGKRLQDVIPVEMYTRLETSDLHALRQAEPVRYIDKVVSSDGHITWFDVVKSPFKDKASGTNGVLIMARDIS,not soluble
15,MERRLGVRAWVKENRGSFQPPVCNKLMHQEQLKVMFVGGPNTRKDYHIEEGEEVFYQLEGDMVLRVLEQGKHRDVVIRQGEIFLLPARVPHSPQRFANTVGLVVERRRLETELDGLRYYVGDTMDVLFEKWFYCKDLGTQLAPIIQEFFSSEQYRTGKPIPDQLLKEPPFPLSTRSIMEPMSLDAWLDSHHRELQAGTPLSLFGDTYETQVIAYGQGSSEGLRQNVDVWLWQLEGSSVVTMGGRRLSLAPDDSLLVLAGTSYAWERTQGSVALSVTQDPACKKPLGLEHHHHHH,not soluble
16,MERSLDSLAGMAKSAFGAGTSAAMRQATSPKTILEYIINFFTCGGIRRRNETQYQELIETMAETLKSTMPDRGAPLPENIILDDMDGCRVEFNLPGENNEAGQVIVRVSKGDHSETREIPLASFEKICRALLFRCEFSLPQDSVILTAQGGMNLKGAVLTGANLTSENLCDADLSGANLEGAVLFMADCEGANFKGANLSGTSLGDSNFKNACLEDSIMCGATLDHANLTGANLQHASLLGCSMIECNCSGANMDHTNLSGATLIRADMSGATLQGATIMAAIMEGAVLTRANLRKASFISTNLDGADLAEANLNNTCFKDCTLTDLRTEDATMSTSTQTLFNEFYSENI,not soluble
